How the values were obtained:
[1] = target: neuraminidase of A/Michigan/45/2015 (H1N1), recombinant head domain (Influenza A virus A/Michigan/45/2015 …, UniProt A0A0X9QTS2, strain); experiment: ELISA; conditions: one partner purified
[2] = target: neuraminidase of A/Wyoming/3/2003 (H3N2), recombinant head domain (Influenza A virus A/Wyoming/3/2003 …, UniProt Q595Z6, strain); experiment: cell-based or functional assay
[3] = target: neuraminidase of A/Moscow/10/1999 (H3N2), recombinant head domain (Influenza A virus A/Moscow/10/1999 …, strain); experiment: BLI; conditions: both partners purified

Binder	binding result [1]	NA inhibition of recombinant NA by enzyme-linked lectin assay (ELLA), IC50 [2]	Kd [3]
HB420 (human IgG1) (antibody, V domains shown) VH: EVQLVESGAEVKKPGSSVKVSCMASGGSFGSYGFSWVRQAPGQGLEWMGGIIPLFDTPNYAQKFQGRVTITADASTSTVYMELSSLRSEDTAVYYCARDSLPYGDQNYYYGMHVWGQGTTVTVSS VL: QSALTQPASLSGSPGQSITISCSGSSSDIGDYNYVSWYQQHPGKAPKLIIYDVTNRPSGVSDRLSGSKSGTTASLTISGLQAEDEADYYCSSYGGNYNLVFGGGTKLTVL	no binding	0.19 µg/mL	
HB420 with only light chain SHMs reverted (Fab) (Fab, V domains shown) VH: EVQLVESGAEVKKPGSSVKVSCMASGGSFGSYGFSWVRQAPGQGLEWMGGIIPLFDTPNYAQKFQGRVTITADASTSTVYMELSSLRSEDTAVYYCARDSLPYGDQNYYYGMHVWGQGTTVTVSS VL: QSALTQPASVSGSPGQSITISCTGTSSDVGGYNYVSWYQQHPGKAPKLMIYDVSNRPSGVSNRFSGSKSGNTASLTISGLQAEDEADYYCSSYTSNYNLVFGGGTKLTVL			< 1 nM
HB420 with only heavy chain SHMs reverted (Fab) (Fab, V domains shown) VH: EVQLVQSGAEVKKPGSSVKVSCKASGGTFSSYAISWVRQAPGQGLEWMGGIIPIFGTANYAQKFQGRVTITADESTSTAYMELSSLRSEDTAVYYCARDSLPYGDQNYYYGMHVWGQGTTVTVSS VL: QSALTQPASLSGSPGQSITISCSGSSSDIGDYNYVSWYQQHPGKAPKLIIYDVTNRPSGVSDRLSGSKSGTTASLTISGLQAEDEADYYCSSYGGNYNLVFGGGTKLTVL			1.1 nM
HB420 fragment antigen-binding (Fab) (Fab, V domains shown) VH: EVQLVESGAEVKKPGSSVKVSCMASGGSFGSYGFSWVRQAPGQGLEWMGGIIPLFDTPNYAQKFQGRVTITADASTSTVYMELSSLRSEDTAVYYCARDSLPYGDQNYYYGMHVWGQGTTVTVSS VL: QSALTQPASLSGSPGQSITISCSGSSSDIGDYNYVSWYQQHPGKAPKLIIYDVTNRPSGVSDRLSGSKSGTTASLTISGLQAEDEADYYCSSYGGNYNLVFGGGTKLTVL			< 1 nM
HB420 with all SHMs reverted (Fab) (Fab, V domains shown) VH: EVQLVQSGAEVKKPGSSVKVSCKASGGTFSSYAISWVRQAPGQGLEWMGGIIPIFGTANYAQKFQGRVTITADESTSTAYMELSSLRSEDTAVYYCARDSLPYGDQNYYYGMHVWGQGTTVTVSS VL: QSALTQPASVSGSPGQSITISCTGTSSDVGGYNYVSWYQQHPGKAPKLMIYDVSNRPSGVSNRFSGSKSGNTASLTISGLQAEDEADYYCSSYTSNYNLVFGGGTKLTVL			1.8 nM
